In US20220048947A1 (NANOTAG BIOTECHNOLOGIES, published 2022):
Where no end group is shown, it is not given here.

T1: ALFA^ST peptide (Ac-PSRLEEELRRRLTEP-Amide)
T1 construct: also called free ALFA^ST peptide; ALFA peptide
T1 peptide: Ac-PSRLEEELRRRLTEP-NH2

T2: PpiD (E. coli, UniProt P0ADY1 1-623)
T2 sequence (looked up): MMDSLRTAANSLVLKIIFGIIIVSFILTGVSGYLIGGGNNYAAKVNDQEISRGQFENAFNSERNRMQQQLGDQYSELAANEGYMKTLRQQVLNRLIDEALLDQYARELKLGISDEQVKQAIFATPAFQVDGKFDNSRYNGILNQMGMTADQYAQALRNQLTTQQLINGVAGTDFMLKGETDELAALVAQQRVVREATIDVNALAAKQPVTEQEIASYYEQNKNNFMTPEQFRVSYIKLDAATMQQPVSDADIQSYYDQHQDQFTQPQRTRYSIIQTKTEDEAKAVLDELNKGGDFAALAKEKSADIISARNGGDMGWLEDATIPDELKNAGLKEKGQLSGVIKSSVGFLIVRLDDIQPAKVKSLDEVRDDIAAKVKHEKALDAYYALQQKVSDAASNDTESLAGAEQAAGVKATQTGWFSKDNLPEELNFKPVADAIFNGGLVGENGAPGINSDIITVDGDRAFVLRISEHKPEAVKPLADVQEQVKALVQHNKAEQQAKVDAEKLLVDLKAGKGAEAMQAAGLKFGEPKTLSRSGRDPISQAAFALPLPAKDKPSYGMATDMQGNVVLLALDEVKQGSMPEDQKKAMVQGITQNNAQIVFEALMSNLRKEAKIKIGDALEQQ

T3: YfgM (non-tagged) (E. coli, UniProt P76576 1-206)
T3 construct: Control without tag; also called wild-type YfgM; untagged YfgM
T3 sequence: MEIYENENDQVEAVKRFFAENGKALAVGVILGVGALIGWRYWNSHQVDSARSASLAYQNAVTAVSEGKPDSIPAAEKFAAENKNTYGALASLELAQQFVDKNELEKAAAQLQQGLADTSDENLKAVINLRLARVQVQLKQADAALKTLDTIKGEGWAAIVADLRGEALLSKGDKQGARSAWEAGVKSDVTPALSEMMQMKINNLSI

B1: NbALFA^ST (NbALFA clone 1G5) (VHH)
VHH: EVQLQESGGGLVQPGGSLRLSCTASGVTISALNAMAMGWYRQAPGERRVMVAAVSERGNAMYRESVQGRFTVTRDFTNKMVSLQMDNLKPEDTAVYYCHVLEDRVDSFHDYWGQGTQVTVSS
notes: Alpaca single-domain antibody; also called ALFA Selector^ST (immobilised on agarose resin); FluoTag-X2 anti-ALFA (coupled to AbberiorStar635P or IRDye800CW)

Legend:
[1] = target: B1; assay: peptide elution from NbALFA^ST resin; tag position N
[2] = target: B1; assay: peptide elution from NbALFA^ST resin; tag position M
[3] = target: B1; assay: peptide elution from NbALFA^ST resin; tag position C
[4] = target: maltose-binding protein (MBP) fused to multiple epitope tags (FLAG, HA, myc and ALFA^ST); assay: dot blot, 2.7 nM nanobody or primary antibody
[5] = target: T1, ALFA^ST peptide …; assay: X-ray structure of the complex
PpiD [6] = target: T2, PpiD; assay: pull-down on ALFA Selector^ST from DDM lysate, Western blot
YfgM (non-tagged) [7] = target: T3, YfgM (non-tagged); assay: as above
ALFA^PE-FLAG-Vimentin = target: T4, ALFA^PE-FLAG-Vimentin (Mus musculus (Mouse), UniProt P20152 2-466); assay: direct immunofluorescence on PFA-fixed COS-7 cells
T4 construct: Expressed in COS-7 cells; also called ALFA^PE-Vimentin; ALFA^PE-tagged Vimentin
T4 sequence (P20152 other isoform, or with tags, fused parts or gaps): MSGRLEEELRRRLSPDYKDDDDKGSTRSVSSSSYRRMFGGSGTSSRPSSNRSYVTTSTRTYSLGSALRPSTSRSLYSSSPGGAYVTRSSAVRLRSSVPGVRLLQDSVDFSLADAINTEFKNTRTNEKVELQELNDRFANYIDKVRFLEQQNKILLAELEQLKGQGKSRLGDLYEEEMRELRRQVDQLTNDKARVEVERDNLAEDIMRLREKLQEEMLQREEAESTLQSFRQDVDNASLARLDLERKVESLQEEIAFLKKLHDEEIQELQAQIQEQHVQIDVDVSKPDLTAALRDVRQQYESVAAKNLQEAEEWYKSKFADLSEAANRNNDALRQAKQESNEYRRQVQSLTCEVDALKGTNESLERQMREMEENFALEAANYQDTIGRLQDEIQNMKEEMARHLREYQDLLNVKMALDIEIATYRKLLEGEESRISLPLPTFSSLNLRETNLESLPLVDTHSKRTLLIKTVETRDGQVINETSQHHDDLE

ALFA^ST-FLAG-Vimentin [8] = target: T5, ALFA^ST-FLAG-Vimentin (Mus musculus (Mouse), UniProt P20152 2-466); assay: direct immunofluorescence on PFA-fixed COS-7 cells
T5 construct: Expressed in COS-7 cells; also called ALFA^ST-Vimentin; ALFA^ST-tagged Vimentin
T5 sequence (P20152 other isoform, or with tags, fused parts or gaps): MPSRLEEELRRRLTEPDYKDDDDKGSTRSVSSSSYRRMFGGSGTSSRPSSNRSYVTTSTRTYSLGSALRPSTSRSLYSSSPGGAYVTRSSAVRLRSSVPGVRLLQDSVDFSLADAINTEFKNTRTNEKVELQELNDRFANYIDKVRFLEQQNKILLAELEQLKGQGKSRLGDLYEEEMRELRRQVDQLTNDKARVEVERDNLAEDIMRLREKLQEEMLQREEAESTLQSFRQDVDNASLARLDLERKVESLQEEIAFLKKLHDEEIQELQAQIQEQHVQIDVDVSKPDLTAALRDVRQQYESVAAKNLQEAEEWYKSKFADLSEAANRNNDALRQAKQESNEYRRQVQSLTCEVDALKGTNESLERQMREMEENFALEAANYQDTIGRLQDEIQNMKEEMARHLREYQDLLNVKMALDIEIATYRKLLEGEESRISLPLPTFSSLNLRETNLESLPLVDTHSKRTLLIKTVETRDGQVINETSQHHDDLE

ALFA^ST-FLAG-Vimentin [9] = target: T5, ALFA^ST-FLAG-Vimentin; assay: intrabody co-expression in COS-7 cells, fluorescence microscopy
PpiD [10] = target: T2, PpiD; assay: pull-down on ALFA Selector^PE from DDM lysate, Western blot
YfgM (non-tagged) [11] = target: T3, YfgM (non-tagged); assay: as above

| Binder | t1/2 [2] [h] | t1/2 [3] [h] | further results |
| --- | --- | --- | --- |
| MSGLEQELRRRLTPS (not fully specified (residue 15); printed as MSGLEQELRRRLTPs, Tag variant tested inside a fusion protein, position N) [MSGLEQELRRRLTPs (SEQ ID NO: 110)] |  |  | t1/2 [1]: < 0.0333 h |
| SPSRLEEELRRRLTADP (Tag variant tested inside a fusion protein, position M) [spSRLEEELRRRLTAdp (SEQ ID NO: 16)] | > 1.67 |  |  |
| PSRLEEELRRRLTE (Tag tested inside a fusion protein, position C; also called ALFA^ST tag (C-terminal)) [pSRLEEELRRRLTE (SEQ ID NO: 7)] |  | > 1.67 |  |
| GPSRLEEELRRRLTAAS (Tag variant tested inside a fusion protein, position C) [gPSRLEEELRRRLTAas. (SEQ ID NO: 21)] |  | > 1.67 |  |
| GPSRLEEELRRRLTA (Tag variant tested inside a fusion protein, position C) [gPSRLEEELRRRLTA. (SEQ ID NO: 19)] |  | > 1.67 |  |
| GPSRLEEELRRRLTE (Tag variant tested inside a fusion protein, position C) [gpSRLEEELRRRLTE. (SEQ ID NO: 28)] |  | > 1.67 |  |
| GRSRLEEELRRRLTA (Tag variant tested inside a fusion protein, position C) [grSRLEEELRRRLTA. (SEQ ID NO: 08)] |  | > 1.67 |  |
| B1 |  |  | fold lower detection limit against all other epitope tags [4]: ~10 fold; binding result [5]: binds; binding result (PpiD [6]): no binding; binding result (YfgM (non-tagged) [7]): no binding; binding result (ALFA^PE-FLAG-Vimentin): binds; binding result (ALFA^ST-FLAG-Vimentin [8]): binds |
| NbALFA^ST-mScarlet-I (VHH, Intrabody fusion expressed in COS-7 cells; also called pNT1004) VHH: EVQLQESGGGLVQPGGSLRLSCTASGVTISALNAMAMGWYRQAPGERRVMVAAVSERGNAMYRESVQGRFTVTRDFTNKMVSLQMDNLKPEDTAVYYCHVLEDRVDSFHDYWGQGTQVTVSS |  |  | binding result (ALFA^ST-FLAG-Vimentin [9]): binds |
| NbALFA^PE (VHH, Weaker mutant of NbALFA^ST made by rational mutagenesis from the crystal structure; used on agarose (ALFA Selector^PE) or in solution (MST); also called NbALFA^PE mutant; ALFA Selector^PE (immobilised on agarose resin)) VHH: EVQLQESGGGLVQPGGSLRLSCTASGVTISALNAMAMGWYRQAPGEERVMVAAVSSRGNAMYRESVQGRFTVTRDFTNKMVSLQMDNLKPEDTAVYYCHVLEDRVDSFHDYWGQGTQVTVSS |  |  | binding result (PpiD [10]): no binding; binding result (YfgM (non-tagged) [11]): no binding |
| GPSRLEEELRRRLT (Tag variant tested inside a fusion protein, position C) [gPSRLEEELRRRLT. (SEQ ID NO: 18)] |  | > 1.67 |  |
| MSSRLEEELRRRLTEP (not fully specified (residues 2, 16); printed as MsSRLEEELRRRLTEp, Tag variant tested inside a fusion protein, position N) [MsSRLEEELRRRLTEp (SEQ ID NO: 30)] |  |  | t1/2 [1]: > 1.67 h |
| SPSRLEEELRRRLEAP (Tag variant tested inside a fusion protein, position M) [spSRLEEELRRRLEAp (SEQ ID NO: 13)] | > 1.67 |  |  |
| GPSRLEEELRRRLTEP (Tag variant tested inside a fusion protein, position C) [gpSRLEEELRRRLTEp. (SEQ ID NO: 27)] |  | > 1.67 |  |
| SPSGLEQELRRRLTAP (Tag variant tested inside a fusion protein, position M) [spSGLEQELRRRLTAp (SEQ ID NO: 22)] | > 1.67 |  |  |
| SPSRLEEELRRRLTDP (Tag variant tested inside a fusion protein, position M) [spSRLEEELRRRLTDp (SEQ ID NO: 14)] | > 1.67 |  |  |
| SPSRLEEELRRRLTAP (Tag variant tested inside a fusion protein, position M) [spSRLEEELRRRLTAp (SEQ ID NO: 11)] | > 1.67 |  |  |
| GPSRLEEELRRRLTAA (Tag variant tested inside a fusion protein, position C) [gPSRLEEELRRRLTAa. (SEQ ID NO: 20)] |  | > 1.67 |  |
| SPSGLEQELRRRLTEP (Tag variant tested inside a fusion protein, position M) [spSGLEQELRRRLTEp (SEQ ID NO: 25)] | > 1.67 |  |  |
| SPSRLEEELRRRLTEP (Tag variant tested inside a fusion protein, position M) [spSRLEEELRRRLTEp (SEQ ID NO: 15)] | > 1.67 |  |  |
| SPSGLEQELRRRLEAP (Tag variant tested inside a fusion protein, position M) [spSGLEQELRRRLEAp (SEQ ID NO: 24)] | > 1.67 |  |  |
| SPSGLEEELRRRLTEP (Tag variant tested inside a fusion protein, position M) [spSGLEEELRRRLTEp (SEQ ID NO: 17)] | > 1.67 |  |  |
| GPSRLEEELRRRLTAP (Tag variant tested inside a fusion protein, position C) [gpSRLEEELRRRLTAp. (SEQ ID NO: 26)] |  | > 1.67 |  |
| SPSGLEQELRRRLDAP (Tag variant tested inside a fusion protein, position M) [spSGLEQELRRRLDAp (SEQ ID NO: 23)] | > 1.67 |  |  |
| SPSRLEEELRRRLDAP (not fully specified (residues 1, 2, 16); printed as spSRLEEELRRRLDAp, Tag variant tested inside a fusion protein, position M) [spSRLEEELRRRLDAp (SEQ ID NO: 12)] | > 1.67 |  |  |
| PGSRLEEELRRRLTAP (Tag variant tested inside a fusion protein, position M) [pgSRLEEELRRRLTAp (SEQ ID NO: 09)] | > 1.67 |  |  |
| MSRLEEELRRRLTEP (Tag variant tested inside a fusion protein, position N) [MSRLEEELRRRLTEp (SEQ ID NO: 29)] |  |  | t1/2 [1]: > 1.67 h |
| PSRLEEELRRRLTEP (not fully specified (residues 1, 15); printed as pSRLEEELRRRLTEp, Tag tested inside a fusion protein, position M; also called ALFA^ST tag (internal)) [pSRLEEELRRRLTEp (SEQ ID NO: 6)] | > 1.67 |  |  |
| PSTRLEEELRRRLTAP (Tag variant tested inside a fusion protein, position M) [psTRLEEELRRRLTAp (SEQ ID NO: 10)] | > 1.67 |  |  |
